B1: NMC-204: mouse monoclonal antibody, IgG3 isotype, binds NMC-P2 (SEQ ID NO:2); VH SEQ ID NO:38, VL SEQ ID NO:39 (antibody, V domains shown)
VH: EVQLQESGSVLVRPGASVKLSCKASGDTLSGSWMHWAMQRPGQGLEWIGEIHLNRGTTNYNEKFKGKATVTVDTSSSTAYVDLSSLTSEDSAVYYCARSPGFAYWGQGTLVTVSA
VL: GIVMTQAAPSVPVTPGESVSISCRSSKSLLHSNGNSYLYWFLQRPGQSPQLLIYRMSNLASGVPDRFSGSGSGTAFTLRITRVEAEDVGVYYCMQHLEYPFTFGSGTKLEIK
modifications: mAb NMC-204 Heavy Chain Variable Region; mAb NMC-204 Light Chain Variable Region
B2: NMC-103: mouse monoclonal antibody, IgG1 isotype, binds NMC-P1 (SEQ ID NO:1); VH SEQ ID NO:36, VL SEQ ID NO:37 (antibody, V domains shown)
VH: EVQLQESGGGLVQPGGSLRLSCTTSGFTFTHYYMSWVRQPPGKALEWLGFIRNKAKGYTAEYSASVKGRFTISRDNSQSILYLQMNTLRPEDSATYYCARDIGDNWGQGTLVTVSS
VL: DIVMTQAAFSNPVTLGTSASISCRSSKNLLHSNGITYLYWYLQRPGQSPQLLISRVSNLASGVPNRFSGSESGTDFTLRISRVEAEDVGVYFCAQLLELPYTFGGGTKLEIK
modifications: mAb NMC-103 Heavy Chain Variable Region; mAb NMC-103 Light Chain Variable Region

What was measured:
[1] = system: mouse Lewis Lung cancer LL/2 cells (subcutaneous tumors); experiment: LL/2 syngeneic mouse model of lung cancer; assay type: in vivo, mouse (C57BL/6); details: day 21; 0.4 mg/kg i.p. 3 times a week for 3 weeks, started with tumor cell inoculation; FIG. 16
Experimental: Methodology used (Syngeneic Mouse Models of lung, colon and pancreatic cancer): To investigate the anti-tumor effects of HDM2-specific antibodies on lung, colon and pancreatic tumors in vivo, three well-known syngeneic mouse models of lung, colon and pancreatic cancer were used (Sharma et al, 1999, J. Immunol. 163 (9):5020-5028; McIntyre, 2015, Bioassays 37(8):909-920; Li, et al, 2015, Sci. Rep. 5:7856). Subcutaneous tumors were prepared by implanting either mouse Lewis Lung cancer LL/2 cells (2.5×10^5 cells/mouse), mouse colon cancer MC-38 cells (5×10^5 cells/mouse) or mouse pancreatic cancer Panc-2 cells (2×10^6 cells/mouse) in the right flanks of 8-week-old female C57BL/6 mice (n=6-7). The mice were returned to their respective cages after tumor implantation. From day 7 after tumor implantation, the tumor volumes were measured 2 times/week with a digital caliper. In the case of MC-38 and Panc-2 study, treatment started when the tumors reached an average of 70-80 mm^3. In the case of LL/2 study, tumor cell inoculation and treatment were initiated simultaneously. Mice were micro-chipped and registered following tumor implantation. […]

[2] = system: Human pancreatic cancer MIAPaCa-2 cells; experiment: Complement-mediated cytotoxicity (CDC) with normal human serum, PI staining; assay type: cell-based; details: antibody 30 μg/ml; NHS 1:10; 2 hours; FIG. 13
Experimental: Methodology used: Cells seeded in 24-well dishes were grown overnight at 37° C. in a humidified atmosphere supplied with 5% CO2-95% air mixture. The following day the cells were thoroughly washed with ice-cold PBS and incubated with HDM2-specific mAb NMC-103 diluted in culture medium containing 1% BSA to a final antibody concentration of 30 μg/ml. After 30 min, NHS was added to the cells at a final concentration of 1:10 in the culture medium with 1%) BSA together with 1% propidium iodide (PI) solution. Cells were then incubated with NHS for 2 hours and images were taken using EVOS FL fluorescent microscope (Life Technologies).

[3] = target: NMC-P1 peptide (SEQ ID NO:1) (Homo sapiens, UniProt Q00987); experiment: Peptide antigen binding competition ELISA; details: mAb pre-incubated with peptide 1 hour at room temperature; FIG. 1D
Experimental: Peptide-ELISA Methodology: 5 μg/ml of NMC-P1, NMC-P2 or NMC-P3 peptide antigen was dried onto a 96-well ELISA plate overnight. Plates were then blocked with 5% BSA in 1× phosphate-buffered saline (PBS) (100 ? /well) for 2 hours at room temperature. Microplate wells were then washed 5 times with 300 ? of ice cold 1× PBS. Appropriate dilutions of monoclonal antibodies NMC-103, NMC-204 or NMC-303 in 1% bovine serum albumin (BSA) in PBS solution were then incubated with their corresponding peptides (NMC-P1, NMC-P2 or NMC-P3, respectively) at room temperature. After 2 hours, wells were washed 5 times with 300 ? ? ice-cold PBS/well and 100 ? secondary antibody (HRP-labeled Goat anti-Mouse F(ab′)2 H&L cross-adsorbed secondary antibody (HRP-GaM F(ab′)2), ThermoFisher, Cat. No. A24524) diluted 1:2500 to 1:5000 in PBS-1% BSA solution were added and the incubation continued at room temperature. After 1 hour, the wells were washed again 5 times with 200 ? of ice-cold PBS and 50 μiL of the TMB Substrate Solution (1-StepTM Ultra TMB-ELISA, ThermoFisher, Cat. No. 34028) were added to each well and color was allowed to develop for 30 minutes at room temperature. The reaction was stopped by addition of 50 μ ? ? of stop solution (ThermoFisher, Cat. No. SSO4) to each well and absorbance of each well was read immediately for optical density (OD) at 450 nm. […]

Row | Molecule | tumor volume [1] | complement-mediated cytotoxicity (nuclear uptake of Propidium Iodide) [2] | binding of mAb to NMC-P1 peptide on the plate after pre-incubation with NMC-P1 peptide [3] | binding of mAb to NMC-P1 peptide on the plate after pre-incubation with NMC-P2 or NMC-P3 [3]
1 | B1 | 1446 mm^3 |  |  | 
2 | B2 |  | triggered complement-mediated cytotoxicity | abolished the binding | did not affect the binding

Reference: US11407840B2, “Antibodies to M(H)DM2/4 and their use in diagnosing and treating cancer” (NomoCan Pharmaceuticals LLC, priority 2017, dated 2022)
